This note sets out measurements from paper PMC4174438.

For this data set, the target named is RtcA (RNA 3'-phosphate cyclase) (Pyrococcus horikoshii, UniProt O59198 1-341). Kind of data set: EMSA. A general note: In EMSA bound probe runs differently from free probe, usually more slowly.
RtcA (RNA 3'-phosphate cyclase), sequence (O59198 whole entry): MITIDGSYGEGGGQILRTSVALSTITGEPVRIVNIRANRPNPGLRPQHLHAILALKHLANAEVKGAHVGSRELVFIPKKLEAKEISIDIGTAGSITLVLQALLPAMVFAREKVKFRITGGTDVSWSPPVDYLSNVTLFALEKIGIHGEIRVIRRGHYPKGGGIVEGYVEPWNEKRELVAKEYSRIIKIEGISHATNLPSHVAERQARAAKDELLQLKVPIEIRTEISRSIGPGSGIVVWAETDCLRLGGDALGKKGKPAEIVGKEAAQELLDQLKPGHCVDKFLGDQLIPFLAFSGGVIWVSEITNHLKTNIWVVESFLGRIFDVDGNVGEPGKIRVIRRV

With CGUUUU (ssRNA, 3'-phosphate) [U6 6-mer RNA 3'-p], the binding result was “binds”.
